Here are results for 13 molecules from patent US20150045540A1 (published 2015).

Assay [1] deals with T1, Placenta Growth Factor (PlGF), human (human, UniProt P49763 21-149).
T1 chain: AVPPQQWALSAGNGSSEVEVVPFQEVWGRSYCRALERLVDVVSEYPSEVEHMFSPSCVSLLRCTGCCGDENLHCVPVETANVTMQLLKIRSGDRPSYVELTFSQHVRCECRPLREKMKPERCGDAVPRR
The assay is described as follows: ELISA.

The target of assay [2] is Hepatocyte Growth Factor (HGF), human (human, UniProt P14210 32-728). As to the kind of experiment: ELISA.
A further assay addresses ErbB3 (UniProt P21860 20-643). The assay is described as follows: binding.
Assay [3] addresses T2, VEGF (Example 4) (UniProt P15692 27-191).
T2 chain: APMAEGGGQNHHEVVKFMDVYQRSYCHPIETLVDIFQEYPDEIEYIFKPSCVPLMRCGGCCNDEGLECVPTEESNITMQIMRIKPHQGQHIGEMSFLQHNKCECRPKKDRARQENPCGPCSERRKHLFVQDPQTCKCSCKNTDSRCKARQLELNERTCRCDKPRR
As to the kind of experiment: binding.

Assay [4] addresses T2, VEGF (Example 4). The assay is described as follows: VEGF-KDR inhibition.

Chain of ErbB3 (P21860 20-643): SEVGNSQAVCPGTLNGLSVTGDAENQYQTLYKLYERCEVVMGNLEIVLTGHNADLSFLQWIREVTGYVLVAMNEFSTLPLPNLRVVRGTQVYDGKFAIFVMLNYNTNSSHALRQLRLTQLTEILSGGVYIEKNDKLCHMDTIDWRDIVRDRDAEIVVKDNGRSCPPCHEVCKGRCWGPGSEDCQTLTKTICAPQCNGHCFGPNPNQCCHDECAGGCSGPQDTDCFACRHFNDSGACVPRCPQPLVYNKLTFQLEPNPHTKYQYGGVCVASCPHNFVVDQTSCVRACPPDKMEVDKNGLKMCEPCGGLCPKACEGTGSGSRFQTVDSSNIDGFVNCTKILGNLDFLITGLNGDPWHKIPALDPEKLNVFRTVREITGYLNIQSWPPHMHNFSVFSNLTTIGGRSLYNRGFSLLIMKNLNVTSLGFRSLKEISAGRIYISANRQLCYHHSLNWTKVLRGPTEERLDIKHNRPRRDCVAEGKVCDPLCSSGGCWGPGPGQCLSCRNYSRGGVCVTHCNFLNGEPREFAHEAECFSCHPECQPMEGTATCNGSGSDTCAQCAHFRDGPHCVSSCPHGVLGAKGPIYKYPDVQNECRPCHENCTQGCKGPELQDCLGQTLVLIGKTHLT
Chain of Hepatocyte Growth Factor (HGF), human (P14210 32-728): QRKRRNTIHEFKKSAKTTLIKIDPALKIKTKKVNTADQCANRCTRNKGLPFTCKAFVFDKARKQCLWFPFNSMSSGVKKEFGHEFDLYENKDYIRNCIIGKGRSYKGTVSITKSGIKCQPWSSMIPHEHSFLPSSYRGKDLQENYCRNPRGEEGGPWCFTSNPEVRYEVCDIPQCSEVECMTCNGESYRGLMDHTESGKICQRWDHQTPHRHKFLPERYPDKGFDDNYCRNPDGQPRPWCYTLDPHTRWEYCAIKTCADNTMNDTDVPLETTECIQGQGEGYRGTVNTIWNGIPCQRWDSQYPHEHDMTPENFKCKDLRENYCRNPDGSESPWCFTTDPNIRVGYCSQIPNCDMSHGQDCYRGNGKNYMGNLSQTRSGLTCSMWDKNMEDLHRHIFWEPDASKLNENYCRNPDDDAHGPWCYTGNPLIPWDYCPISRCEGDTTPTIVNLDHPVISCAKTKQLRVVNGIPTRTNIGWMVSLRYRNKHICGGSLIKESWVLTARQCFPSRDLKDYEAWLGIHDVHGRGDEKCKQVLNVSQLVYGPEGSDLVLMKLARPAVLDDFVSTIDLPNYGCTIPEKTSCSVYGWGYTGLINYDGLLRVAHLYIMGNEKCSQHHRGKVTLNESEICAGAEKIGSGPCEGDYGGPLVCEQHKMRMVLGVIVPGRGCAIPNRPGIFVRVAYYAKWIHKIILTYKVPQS

B1: HC 6/SLC 7 (antibody)
chain 1: GQGTLVTVSSASTKGPQPVLHQPPAMSSALGTTIRLTCTLRNDHDIGVYSVYWYQQRPGHPPRFLLRYFSQSDKSQGPQVPPRFSGSKDVARNRGYLSISELQPEDEAMYYCAMGARSRCWPRGFQSKHNSVTHVFGSGTQLTVLSQPKATPSVTLFPPSSEELQANKATLVCLMNDFYPGILTVTWKADGTPITQGVEMTTPSKQSNNKYAASSYLSLTPEQWRSRRSYSCQVMHEGSTVEKTVAPAECS
chain 2: MSWAPVLLMLFVYCTGCGPQPVLHQPPAMSSALGTTIRLTCTLRNDHDIGVYSVYWYQQRPGHPPRFLLRYFSQSDKSQGPQVPPRFSGSKDVARNRGYLSISVTHVFGSGTQLTVLSQPKATPQVQLVQ
For B1, the EC50 in assay [1] came out at 0.083 nM; in assay [2] it was 0.056 nM.

B2: HC 9/SLC 3 (antibody)
chain 1: GQGTLVTVSSASTKGPSVFQPVLHQPPAMSSALGTTIRLTCTLRNDHDIGVYSVYWYQQRPGHPPRFLLRYFSQSDKSQGPQVPPRFSGSKDVARNRGYLSISELQPEDEAMYYCAMGARSRCWPRGFQSKHNSVTHVFGSGTQLTVLSQPKATPSVTLFPPSSEELQANKATLVCLMNDFYPGILTVTWKADGTPITQGVEMTTPSKQSNNKYAASSYLSLTPEQWRSRRSYSCQVMHEGSTVEKTVAPAECS
chain 2: MSWAPVLLMLFVYCTGCGPQPVLHQPPAMSSALGTTIRLTCTLRNDHDIGVYSVYWYQQRPGHPPRFLLRYFSQSDKSQGPQVPPRFSGSKDVARNRGYLSISVTHVFGSGTQLTVLSQPQVQLVQ
Consider B2, for which the EC50 in assay [1] came out at 0.136 nM; in assay [2], 0.078 nM.

B3: HC 9/SLC 5 (antibody)
chain 1: GQGTLVTVSSASTKGPSVFQPVLHQPPAMSSALGTTIRLTCTLRNDHDIGVYSVYWYQQRPGHPPRFLLRYFSQSDKSQGPQVPPRFSGSKDVARNRGYLSISELQPEDEAMYYCAMGARSRCWPRGFQSKHNSVTHVFGSGTQLTVLSQPKATPSVTLFPPSSEELQANKATLVCLMNDFYPGILTVTWKADGTPITQGVEMTTPSKQSNNKYAASSYLSLTPEQWRSRRSYSCQVMHEGSTVEKTVAPAECS
chain 2: MSWAPVLLMLFVYCTGCGPQPVLHQPPAMSSALGTTIRLTCTLRNDHDIGVYSVYWYQQRPGHPPRFLLRYFSQSDKSQGPQVPPRFSGSKDVARNRGYLSISVTHVFGSGTQLTVLSQPKAQVQLVQ
As to B3, the EC50 in assay [1] is 0.172 nM; in assay [2], 0.065 nM.

B4: HC 9/SLC 4 (antibody)
chain 1: GQGTLVTVSSASTKGPSVFQPVLHQPPAMSSALGTTIRLTCTLRNDHDIGVYSVYWYQQRPGHPPRFLLRYFSQSDKSQGPQVPPRFSGSKDVARNRGYLSISELQPEDEAMYYCAMGARSRCWPRGFQSKHNSVTHVFGSGTQLTVLSQPKATPSVTLFPPSSEELQANKATLVCLMNDFYPGILTVTWKADGTPITQGVEMTTPSKQSNNKYAASSYLSLTPEQWRSRRSYSCQVMHEGSTVEKTVAPAECS
chain 2: MSWAPVLLMLFVYCTGCGPQPVLHQPPAMSSALGTTIRLTCTLRNDHDIGVYSVYWYQQRPGHPPRFLLRYFSQSDKSQGPQVPPRFSGSKDVARNRGYLSISVTHVFGSGTQLTVLSQPKQVQLVQ
Consider B4, for which the EC50 in assay [1] came to 0.164 nM; in assay [2] it was 0.063 nM.

B5: HC 4/SLC 3 (antibody)
chain 1: GQGTLVTVSSASTKQPVLHQPPAMSSALGTTIRLTCTLRNDHDIGVYSVYWYQQRPGHPPRFLLRYFSQSDKSQGPQVPPRFSGSKDVARNRGYLSISELQPEDEAMYYCAMGARSRCWPRGFQSKHNSVTHVFGSGTQLTVLSQPKATPSVTLFPPSSEELQANKATLVCLMNDFYPGILTVTWKADGTPITQGVEMTTPSKQSNNKYAASSYLSLTPEQWRSRRSYSCQVMHEGSTVEKTVAPAECS
chain 2: MSWAPVLLMLFVYCTGCGPQPVLHQPPAMSSALGTTIRLTCTLRNDHDIGVYSVYWYQQRPGHPPRFLLRYFSQSDKSQGPQVPPRFSGSKDVARNRGYLSISVTHVFGSGTQLTVLSQPQVQLVQ
Regarding B5, the EC50 in assay [1] is 0.147 nM; in assay [2] it was 0.06 nM.

B6: HC 7/SLC 2 (antibody)
chain 1: GQGTLVTVSSASTKGPSQPVLHQPPAMSSALGTTIRLTCTLRNDHDIGVYSVYWYQQRPGHPPRFLLRYFSQSDKSQGPQVPPRFSGSKDVARNRGYLSISELQPEDEAMYYCAMGARSRCWPRGFQSKHNSVTHVFGSGTQLTVLSQPKATPSVTLFPPSSEELQANKATLVCLMNDFYPGILTVTWKADGTPITQGVEMTTPSKQSNNKYAASSYLSLTPEQWRSRRSYSCQVMHEGSTVEKTVAPAECS
chain 2: MSWAPVLLMLFVYCTGCGPQPVLHQPPAMSSALGTTIRLTCTLRNDHDIGVYSVYWYQQRPGHPPRFLLRYFSQSDKSQGPQVPPRFSGSKDVARNRGYLSISVTHVFGSGTQLTVLSQQVQLVQ
In the case of B6, the values for the EC50 in assay [1] and in assay [2] were 0.2 nM and 0.057 nM, respectively.

B7: 2 (antibody, V domains shown)
V domain 1: FQPVLHQPPAMSSALGTTIRLTCTLRNDHDIGVYSVYWYQQRPGHPPRFLLRYFSQSDKSQGPQVPPRFSGSKDVARNRGYLSISELQPEDEAMYYCAMGARSSVTHVFGSGTQLTVLS
V domain 2: QPVLHQPPAMSSALGTTIRLTCTLRNDHDIGVYSVYWYQQRPGHPPRFLLRYFSQSDKSQGPQVPPRFSGSKDVARNRGYLSISELQPEDEAMYYCAMGARSSVTHVFGSGTQLTVLS
Take B7: the 50% effective concentration (EC50) in the assay with ErbB3 was determined as 0.051 nM; with VEGF (Example 4) [3] it was 0.016 nM. This molecule returned an IC50 with VEGF (Example 4) [4] of 0.391 nM.

B8: 4 (antibody, V domains shown)
V domain 1: FQPVLHQPPAMSSALGTTIRLTCTLRNDHDIGVYSVYWYQQRPGHPPRFLLRYFSQSDKSQGPQVPPRFSGSKDVARNRGYLSISELQPEDEAMYYCAMGARSSVTHVFGSGTQLTVLS
V domain 2: QPVLHQPPAMSSALGTTIRLTCTLRNDHDIGVYSVYWYQQRPGHPPRFLLRYFSQSDKSQGPQVPPRFSGSKDVARNRGYLSISELQPEDEAMYYCAMGARSSVTHVFGSGTQLTVLS
On to B8, for which the EC50 in the assay with ErbB3 is 0.046 nM; in the assay with VEGF (Example 4) [3], 0.015 nM. Moreover, the 50% inhibitory concentration (IC50) with VEGF (Example 4) [4] amounted to 0.449 nM.

B9: 7 (antibody, V domains shown)
V domain 1: PQPVLHQPPAMSSALGTTIRLTCTLRNDHDIGVYSVYWYQQRPGHPPRFLLRYFSQSDKSQGPQVPPRFSGSKDVARNRGYLSISELQPEDEAMYYCAMGARSSVTHVFGSGTQLTVLS
V domain 2: QPVLHQPPAMSSALGTTIRLTCTLRNDHDIGVYSVYWYQQRPGHPPRFLLRYFSQSDKSQGPQVPPRFSGSKDVARNRGYLSISELQPEDEAMYYCAMGARSSVTHVFGSGTQLTVLS
As to B9, the EC50 came to 0.037 nM in the assay with ErbB3 and 0.013 nM with VEGF (Example 4) [3]. This molecule showed an IC50 in the assay with VEGF (Example 4) [4] of 0.362 nM.

B10: 6 (antibody, V domains shown)
V domain 1: PQPVLHQPPAMSSALGTTIRLTCTLRNDHDIGVYSVYWYQQRPGHPPRFLLRYFSQSDKSQGPQVPPRFSGSKDVARNRGYLSISELQPEDEAMYYCAMGARSSVTHVFGSGTQLTVLS
V domain 2: QPVLHQPPAMSSALGTTIRLTCTLRNDHDIGVYSVYWYQQRPGHPPRFLLRYFSQSDKSQGPQVPPRFSGSKDVARNRGYLSISELQPEDEAMYYCAMGARSSVTHVFGSGTQLTVLS
Regarding B10, the EC50 was 0.048 nM with ErbB3 and 0.012 nM with VEGF (Example 4) [3]. The midpoint of inhibition with VEGF (Example 4) [4], the IC50, lay at 0.589 nM.

B11: 5 (antibody, V domains shown)
V domain 1: PQPVLHQPPAMSSALGTTIRLTCTLRNDHDIGVYSVYWYQQRPGHPPRFLLRYFSQSDKSQGPQVPPRFSGSKDVARNRGYLSISELQPEDEAMYYCAMGARSSVTHVFGSGTQLTVLS
V domain 2: QPVLHQPPAMSSALGTTIRLTCTLRNDHDIGVYSVYWYQQRPGHPPRFLLRYFSQSDKSQGPQVPPRFSGSKDVARNRGYLSISELQPEDEAMYYCAMGARSSVTHVFGSGTQLTVLS
For B11, the EC50 in the assay with ErbB3 was determined as 0.058 nM; with VEGF (Example 4) [3], 0.012 nM. Further, it took 0.409 nM to reach half-maximal inhibition with VEGF (Example 4) [4] (IC50).

B12: 3 (antibody, V domains shown)
V domain 1: FQPVLHQPPAMSSALGTTIRLTCTLRNDHDIGVYSVYWYQQRPGHPPRFLLRYFSQSDKSQGPQVPPRFSGSKDVARNRGYLSISELQPEDEAMYYCAMGARSSVTHVFGSGTQLTVLS
V domain 2: QPVLHQPPAMSSALGTTIRLTCTLRNDHDIGVYSVYWYQQRPGHPPRFLLRYFSQSDKSQGPQVPPRFSGSKDVARNRGYLSISELQPEDEAMYYCAMGARSSVTHVFGSGTQLTVLS
As for B12, the values for the EC50 in the assay with ErbB3 and in the assay with VEGF (Example 4) [3] were 0.05 nM and 0.015 nM, respectively. Besides, 0.429 nM corresponded to half-maximal inhibition in the assay with VEGF (Example 4) [4] (IC50).

B13: HC 4/SLC 8 (antibody)
chain 1: GQGTLVTVSSASTKQPVLHQPPAMSSALGTTIRLTCTLRNDHDIGVYSVYWYQQRPGHPPRFLLRYFSQSDKSQGPQVPPRFSGSKDVARNRGYLSISELQPEDEAMYYCAMGARSRCWPRGFQSKHNSVTHVFGSGTQLTVLSQPKATPSVTLFPPSSEELQANKATLVCLMNDFYPGILTVTWKADGTPITQGVEMTTPSKQSNNKYAASSYLSLTPEQWRSRRSYSCQVMHEGSTVEKTVAPAECS
chain 2: MSWAPVLLMLFVYCTGCGPQPVLHQPPAMSSALGTTIRLTCTLRNDHDIGVYSVYWYQQRPGHPPRFLLRYFSQSDKSQGPQVPPRFSGSKDVARNRGYLSISVTHVFGSGTQLTVLSQPKATPSQVQLVQ
In the case of B13, the EC50 is 0.18 nM in assay [1] and 0.061 nM in assay [2].

As a reminder, the EC50 is the concentration at which the effect is half-maximal. Lower therefore signals an effect from little substance. Broadly, the IC50 is the concentration that gives 50% inhibition.
